This assay concerns the target D/D domain of human regulatory RIIα subunits of PKA (human). Put plainly: AlphaScreen or HTRF.

Sequence of D/D domain of human regulatory RIIα subunits of PKA (human) (P13861 2-44): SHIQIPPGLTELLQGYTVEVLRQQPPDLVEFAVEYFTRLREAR

As to peptide AKAP18δ-L314E, the IC50 turned out to be 12.7 nM. That is a double-digit nanomolar value.

Broadly, the IC50 is the concentration at which inhibition is half-maximal.

For the origin of these results see article PMC4138556.
